Experiment [1] deals with LgBiT-p62 (p62 fused at its N-terminus to the Large BiT luciferase fragment; expressed from pLgBiT-p62) (not stated (cDNA from total RNA of HeLa cells)) (UniProt Q13501). The experiment can be described thus: NanoBiT split-luciferase complementation in HeLa cells co-transfected with pLgBiT-p62 and pSmBiT-DDX5; told of each of compounds 5 to 33 at 10 uM, 24 h.
The target is the same in experiment [2]. The experiment can be described thus: NanoBiT split-luciferase complementation in HeLa cells co-transfected with pLgBiT-p62 and pSmBiT-DDX5, treated with 10 uM AUTAC2-2G, AUTAC4-2G, 8-nitro-cGMP or FBnG; read 10 min after start of measurement (FIG. 1).
For experiment [3] the target is unchanged. The experiment in a line: NanoBiT split-luciferase complementation in HeLa cells co-transfected with pLgBiT-p62 and pSmBiT-DDX5, treated with 10 uM of compounds 5 to 33 or AUTAC2-2G; read 10 min after start of measurement (FIG. 2).
The target is the same in experiment [4]. The experiment can be described thus: NanoBiT split-luciferase complementation in HeLa cells co-transfected with pLgBiT-p62 and pSmBiT-DDX5; told of each of AUTAC2-2G, AUTAC4-2G, 8-nitro-cGMP and FBnG at 10 uM.

On to “SmBiT-DDX5 (DDX5, DEAD box protein 5, fused at its N-terminus to the Small BiT luciferase fragment; expressed from pSmBiT-DDX5) (from UniProt P17844 1-614)”, for which the emission intensity, fold over cells treated with DMSO (times (vs DMSO-treated cells)) in experiment [1] and in experiment [4] was over 1000 in each case. For the same substance, the emission intensity (NanoBiT luminescence) in experiment [2] is 1e+07; in experiment [3], over 1e+07.
